Columns and labels:
[1] = Circular dichroism spectroscopy (helicity, thermal stability); format: physicochemical
Description: Circular Dichroism Spectroscopy:
Circular Dichroism (CD) spectra were obtained using an AVIV Associates 62DS spectrometer equipped with a thermoelectric temperature controller. Spectra were obtained in 0.1, 0.5 and 1.0 cm quartz cells at 1° C. with 0.5 nm steps from 200 to 260 nm, 1.5 nm bandwidth and an averaging time of 4 sec/step. After the cell/buffer blank was subtracted, spectra were smoothed using a third-order least-squares polynomial fit with a conservative (5-10 point) window size to give random residuals. Mixing experiments were performed by comparing the spectrum of the two peptides mixed together in a 0.1 cm path length cell at the desired concentrations (referred to herein as the “experimental” spectrum) to the sum of the individual spectra of the peptides, each solution in a 0.1 cm path length cell (referred to herein as the “model spectrum” for no peptide interaction or “model for no interaction”).
Raw ellipticity values were converted to mean residue ellipticity using standard methods (Cantor & Schimmel, 1980, Biophysical Chemistry Part II: Techniques for the Study of Biological Structure and Function, W.H. Freeman and Co., New York). Conversions for the mixing experiment spectra were performed using a peptide length corresponding to the average of the two peptides. Thermal stability measurements were performed in 2° C. steps, with 1 minute equilibration times. Spectra were smoothed, converted to mean residue ellipticity, and the corresponding value at 222 nm noted from each spectrum. Percent helicity values were calculated using single value decomposition with a basis set of 33 protein spectra (Johnson & Curtis, 1990, Proteins: Structure, Function and Genetics 7:205-214).

[2] = Analytical ultracentrifugation (sedimentation equilibrium); format: physicochemical
Description: Analytical Ultracentrifugation:
Sedimentation equilibrium experiments were performed on a Beckman Optima XL-A analytical ultracentrifuge at 4° C. Six-channel cells (12 mm optical path length) were used with an An-60 Ti rotor operated at 13,500, 16,000, 17,000, 20,000, 21,000, 24,000, 25,000, 27,500, 30,000 and 35,000 rpm. The cell radii were scanned using 0.001 cm steps with 10 averages/scan. Data were analyzed using Beckman XLA data analysis software (version 3.01 for Windows) and Beckman-Origin software (version 3.78 for Windows). […] The partial specific volumes were held constant for all models considered.
Single data files were normalized to 270 nm absorbance values using Beer's Law. The data obtained with solutions containing the DP107-like peptides were then analyzed using a single ideal species model to determine a weight-averaged molecular weight (Mw). Diagnostic plots of Mw/Mw0 vs. rpm/rpm0 and Mw vs. radial concentration were used to test for sample homogeneity as described, e.g., by McRorie & Voelker, 1993, Self-Associating Systems in the Analytical Ultracentrifuge, Beckman Instruments, Inc., Palo Alto; and Yphantis et al., 1978, in Physical Aspects of Protein Interactions: Proceedings of the Symposium on Protein Interactions, American Chemical Society Meeting, Catsimpoolas, Ed., pp. 275-303, Elsevier, Miami Beach, Fla. When systematic residuals or a Mw higher than the monomer molecular weight indicated the presence of self-association, associative models such as monomer/trimer, monomer/tetramer and monomer/dimer/tetrarner were investigated. The suitability of a particular model (i.e., the goodness of fit) was judged by the trends observed in the residuals (Johnson & Straume, 1994, in Modern Analytical Ultracentrifugation, Schuster et al., eds., pp. 37-65, Birkhauser, Boston). Using the associative model which produced random residuals when fitting individual data files, a simultaneous, global, weighted fit of multiple data files (up to nine files with different concentrations and speeds) was performed to determine the association constant and 95% confidence intervals. To convert the resulting association constant from absorbance units to concentration units, it was assumed that the absorbance of the n-mer is n times that of the monomer.
The data obtained with DP107-like/DP178-like peptide mixtures were first analyzed with a single ideal species model. When a systematic trend in residuals coupled with the Mw not equal to a precise multimer of HR1+HR2 were obtained, and alternate fitting scheme was explored. For this approach, it was assumed that the solution contained fully associated HR1-HR2 complexes and unassociated DP107-like and DP178-like peptides. The mixtures were analyzed with a two-ideal species model, choosing one species to have a molecular weight of either 28,269 Da (corresponding to three DP107-like plus three DP178-like peptides) or […] (corresponding to four DP107-like plus four DP178-like peptides).

M41Δ178 fusion protein = experiment: T83 ELARA (Biot-T20) IC50 Conc. (nM)
Source text: Table printed on a drawing sheet, FIG.24A
Head of the field: T83 ELARA (Biot-T20) IC50 Conc. (nM)
The patent's description of the figure: FIGS. 24A-B: Circular dichroism, cell fusion and competitive inhibition data for alanine walk experiments for the peptide T20, which is also known as DP178.
First copying reader's note: The table breaks off at the bottom of the sheet and continues on FIG. 24B; substituted alanine residues are printed in bold, and the T1342 FP column is empty on this sheet.

[3] = system: HIV-1 (HIV-1LAI, HIV-1MN, HIV-1RF, HIV-1SF2); format: cell-based; conditions: lowest concentration tested, FIG. 4B
Description: Approximately 7×10^4 Molt cells were incubated with 1×10^4 CEM cells chronically infected with the HIV-1LAI virus in 96-well plates (one-half area cluster plates; Costar, Cambridge, Mass.) in a final volume of 100 μl culture medium as previously described (Matthews, T. J. et al., 1987, Proc. Natl. Acad. Sci. USA 84: 5424-5428). Peptide inhibitors were added in a volume of 10 μl and the cell mixtures were incubated for 24 hr. at 37° C. At that time, multinucleated giant cells were estimated by microscopic examination at a 40× magnification which allowed visualization of the entire well in a single field.
The initial screen for antiviral activity assayed peptides' ability to block syncytium formation induced by overnight co-cultivation of uninfected Molt 4 cells with chronically HIV-1 infected CEM cells. […] In the first of these experiments, serial DP178 (SEQ ID NO:15) peptide concentrations between 10 μg/ml and 12.5 ng/ml were tested for blockade of the cell fusion process. For these experiments, CEM cells chronically infected with either HIV-1LAI, HIV-1MN, HIV-1RF, or HIV-1SF2 virus were cocultivated overnight with uninfected Molt 4 cells.
The next series of experiments involved the preparation and testing of a DP178 (SEQ ID NO:15) homolog for its ability to inhibit HIV-1-induced syncytia formation.
The next series of experiments involved a comparison of DP178 (SEQ ID NO:15) HIV-1 and HIV-2 inhibitory activity.

With “T1590: RSV HR1 (DP107-like) peptide of FIG. 28, shorter than T1581 (Ac-VLHLEGEVNKIKSALLSTNKAVVSLSNGVSVLTSKVLDLKNYI-NH2) [Peptide T1590]” the “%-Helicity” value ([1]; 35 μM peptide, PBS pH 7) was 10% and the “Tm (midpoint of melting transition)” value ([1]; 35 μM peptide, PBS pH 7) was <10 °C.

With “Ac-SKVLHLEGEVNKIKSALLSTNKAVVSLSNGVSVLTSKVLDLKNYIDKQ-NH2 [Peptide T1583]” the IC50 (RSV) was 1.09 µg/mL.

With “Ac-AVSKVLHLEGEVNKIKSALLSTNKAVVSLSNGVSVLTSKVLDLKNYIDKQL-NH2 (N-terminus and C-terminus assumed) [Peptide T1584]” the IC50 (RSV) was 0.23 µg/mL, the “%-Helicity” value ([1]; 35 μM peptide, PBS pH 7) was 90% and the “Tm (midpoint of melting transition)” value ([1]; 35 μM peptide, PBS pH 7) was 53 °C. The “N-mer (weight-averaged molecular weight divided by monomer molecular weight)” value ([2]; 35 μM) was 2.1.

With “T1582: RSV HR1 (DP107-like) peptide of FIG. 28, shorter than T1581 (Ac-VLHLEGEVNKIKSALLSTNKAVVSLSNGVSVLTSKVLDLKNYIDK-NH2) [Peptide T1582]” the “%-Helicity” value ([1]; 35 μM peptide, PBS pH 7) was 49%, the “Tm (midpoint of melting transition)” value ([1]; 35 μM peptide, PBS pH 7) was 22 °C and the “N-mer (weight-averaged molecular weight divided by monomer molecular weight)” value ([2]; 35 μM) was 1.5.

For “Ac-YTSLIHSLIEESQNQQEKNEQELLELDKWAAAANWF-NH2 [T869]”, the IC50 (M41Δ178 fusion protein) was 57 nM.

For “Ac-VLHLEGEVNKIKSALLSTNKAVVSLSNGVSVLTSKVLDLKNYIDKQ-NH2 (N-terminus and C-terminus assumed) [Peptide T1581]”, the IC50 (RSV) was 3.36 µg/mL, the “%-Helicity” value ([1]; 35 μM peptide, PBS pH 7) was 69% and the “Tm (midpoint of melting transition)” value ([1]; 35 μM peptide, PBS pH 7) was 31 °C. For the same substance, the “N-mer (weight-averaged molecular weight divided by monomer molecular weight)” value ([2]; 35 μM) was 1.8.

With “YTNTIYTLLEESQNQQEKNEQELLELDKWASLWNWF [DP-185]” the “concentration exhibiting inhibitory activity on HIV-1-induced syncytia formation” value [3] was ≤ 312.5 ng/mL.

With “AVSKVLHLEGEVNKIKSALLSTNKAVVSLSNGVSVLTSKVLDLKNYIDKQ (Ac-AVSKVLHLEGEVNKIKSALLSTNKAVVSLSNGVSVLTSKVLDLKNYIDKQ-NH2) [Peptide T1772, RSV DP107-like peptide, residues 153-202 of the RSV F-protein]” the “%-Helicity” value ([1]; 1 μM T1772) was 67%, the Tm ([1]; 1 μM T1772) was 30 °C and the “%-Helicity” value ([1]; 10 μM T1772) was 80%. For the same substance, the Tm ([1]; 10 μM T1772) was 32 °C, the “%-Helicity” value ([1]; 35 μM peptide, PBS pH 7) was 83% and the “Tm (midpoint of melting transition)” value ([1]; 35 μM peptide, PBS pH 7) was 42 °C. The “%-Helicity” value ([1]; 50 μM T1772) was 84%, the Tm ([1]; 50 μM T1772) was 42 °C and the “%-Helicity” value ([1]; 100 μM T1772) was 90%. For the same substance, the Tm ([1]; 100 μM T1772) was 46 °C, the “oligomerization state in solution (in words)” value [2] was “trimeric self-association” and the “N-mer (weight-averaged molecular weight divided by monomer molecular weight)” value ([2]; 25 μM determination) was 2.4. The “Mw, single ideal species model, single data set” value ([2]; 100 μM, 24,000 rpm) was 12,925 Da and the “average Mw relative to the monomer molecular weight” value ([2]; average over concentrations) was 2.4 times.

In the case of “Ac-YTSLIHSLIEESQNQQEKNEQAAAELDKWASLWNWF-NH2 [T872]”, the IC50 (M41Δ178 fusion protein) is reported as 66 nM.

For “T871: T20 with three consecutive residues changed to three alanine residues (YTSLIHSLIEESQNQQEKNEQELLAAAKWASLWNWF) [Peptide T871]”, the IC50 (M41Δ178 fusion protein) was 1160 nM.

“T876: T20 with three consecutive residues changed to three alanine residues (YTSLIHSLIAAAQNQQEKNEQELLELDKWASLWNWF) [Peptide T876]” showed an IC50 (M41Δ178 fusion protein) of 29 nM.

In the case of “Ac-SGVAVSKVLHLEGEVNKIKSALLSTNKAVVSLSNGVSVLTSKVLDLKNYIDKQL-NH2 (N-terminus and C-terminus assumed) [Peptide T1623]”, the IC50 (RSV) is reported as 0.80 µg/mL, the “%-Helicity” value ([1]; 35 μM peptide, PBS pH 7) is reported as 88% and the “Tm (midpoint of melting transition)” value ([1]; 35 μM peptide, PBS pH 7) is reported as 55 °C. The “N-mer (weight-averaged molecular weight divided by monomer molecular weight)” value ([2]; 35 μM) was 2.2.
